# In patent publication US20110288005A1:
# Biological target: bovine pancreatic trypsin (Sigma T1426) (bovine) (UniProt P00760)
# Experiment: cell-based or functional assay
# Chain of bovine pancreatic trypsin (Sigma T1426) (bovine) (P00760 24-246): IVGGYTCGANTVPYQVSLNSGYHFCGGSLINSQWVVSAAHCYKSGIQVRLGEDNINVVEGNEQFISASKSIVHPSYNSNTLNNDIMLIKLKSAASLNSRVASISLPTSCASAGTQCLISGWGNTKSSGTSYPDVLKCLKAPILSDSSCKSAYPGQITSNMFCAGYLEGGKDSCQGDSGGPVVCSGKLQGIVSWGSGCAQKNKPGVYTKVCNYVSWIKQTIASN
% Activity (compared to positive control plasma-derived aaT) [%],"IC50 (µM), equilibrium trypsin inhibition assay [µM]",Substance
65,0.82,aaT-XTEN_AE288
106,0.5,aaT-XTEN_AE576
